Measured values published in PMC3836179 (Nature chemical biology, 2013).

T1: Doc (wild type), toxin of the doc/phd toxin/antitoxin module (UniProt Q06259 1-126)
T1 sequence: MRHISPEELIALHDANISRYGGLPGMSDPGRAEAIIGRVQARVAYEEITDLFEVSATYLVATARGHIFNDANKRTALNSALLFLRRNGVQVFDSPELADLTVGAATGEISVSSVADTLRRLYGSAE

T2: Doc (UniProt Q06259 1-126)
T2 sequence: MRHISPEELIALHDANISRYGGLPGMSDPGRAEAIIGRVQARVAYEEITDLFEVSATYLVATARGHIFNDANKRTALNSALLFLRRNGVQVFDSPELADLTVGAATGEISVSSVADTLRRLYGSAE


Assays:
[1] = target: T1, Doc (wild type), toxin of the doc/phd …; assay: ITC
Doc = target: T2, Doc; assay: ITC

Binder	binding result [1]	binding result (Doc)
LDAEFASLFDTLDSTNKELVNR [antitoxin domain of Phd (residues 52-73)]	binds	–
LDAEFASLFDTLDSTNKELVNR (domain or fragment) [Phd^52-73]	–	binds
